These results are taken from patent US6455025B1, “Polysaccharide-peptide derivatives” (Map Medical Technologies Oy, priority 1996, dated 2002).

Data set [1] relates to tumours and other background tissues. Kind of data set: Gamma-recording after technetium-99m labelled dextran derivative: accumulation into tumours and background tissues. The conditions noted are these: patient, 20 mCi technetium-99m labelled dextran derivative. Here is the method:
The Effect of Different Dextran Conjugates on the Tumour Accumulation and Background-activity
After the administration of 20 mCi of technetium-99 m, labelled dextran derivative to the patient a gamma-recording was carried out on the patient. From the image, the accumulation of the labelled compound into the tumours and to the other background tissues was evaluated. The compounds of the state of the art were prepared as described in the publication Holmberg et al., Antibody Immunoconj. Radiopharm 7: 253-257, 1994.

For data set [2] the following is noted: Holmberg et al. 1994; cited from earlier work.

“Dextran 10 000 somatostatin-taurine-^99mTc: Technetium-99m labelled dextran 10 000 somatostatin taurine conjugate, listed under The Invention”: in data set [1], the “Background (accumulation of the labelled compound into other background tissues)” value (from here on “Background”) is recorded as “++” and the “Tumour (accumulation of the labelled compound into the tumours)” value (“Tumour” below) is listed as “+”.
“Dextran 40 000 somatostatin ^99mTc: State of the art dextran 40 000 somatostatin conjugate labelled with technetium-99m, without taurine”: in data set [1], the “Background” value is recorded as “++” and the “Tumour” value was “++”.
Turning to “Dextran 40 000 somatostatin-taurine ^99mTc: Dextran 40 000-somatostatin-taurine labelled with technetium-99m using SnCl and sodium pertechnetate”, in data set [1], the “Background” value is on record as “+”.
As for “Dextran 10 000 somatostatin-^99mTc: State of the art conjugate prepared as in Holmberg et al. 1994; dextran 10 000 somatostatin labelled with technetium-99m”, in data set [1], the “Background” value is given as “+++” and the “Tumour” value is given as “+”. Moreover, in data set [2], the “half-life in blood T(1)½” value is 4 h and the “half-life in blood T(2)½” value is listed as 8 h.
